Test results reported in doi:10.1101/2024.04.29.591597 (bioRxiv, 2024).

Assays:
[1] = target: OspC type B (OspCB) used in BLI (Borreliella burgdorferi, OspC type B …, UniProt Q44977); assay: BLI
[2] = target: native OspC type K (OspCK) on live B. burgdorferi strain 297 (B. burgdorferi (endogenous in strain 297)); assay: flow cytometry on cells
crystal structure = target: the molecule itself; assay: crystal structure

Binder	binding result [1]	MFI [2]	stoichiometry N (crystal structure)
human monoclonal antibody B11 IgG1 (antibody, V domains shown) VH: QLQLQESGPGLVKPSQTLSLTCTLSGGSISSTSYYWGWIRQPPGSGLEWIGSMYHSGNTYYKSSLKGRVTISLDTSRTQFSLRLTSVTAADTAVYYCARLGDVFNSAMDVWGQGTTVIVSS VL: EIVMTQSPVTLSVSPGERATLSCRASQSVGNNLAWYQHKPGQAPRLLIYDASTRATGIPGRFSGSGSGTEFTLTISSLQSEDFAVYYCQEYNNWPRYTFGQGAKLEIR	no binding	< 35	–
Recombinant Outer surface protein C type A (OspCA), residues 38 to 201, homodimer (domain or fragment, B. burgdorferi B31, UniProt Q07337 38-201, looked up) KGPNLTEISKKITDSNAVLLAVKEVEALLSSIDEIAAKAIGKKIHQNNGLDTENNHNGSLLAGAYAISTLIKQKLDGLKNEGLKEKIDAAKKCSETFTNKLKEKHTDLGKEGVTDADAKEAILKTNGTKTKGAEELGKLFESVEVLSKAAKEMLANSVKELTSP	–	–	2
